From EP4729537A1 (Universitat Politècnica de València, dated 2024)

Assays:
[1] = molecular target: T1, antigenic protein: class A β-lactamase fragment of Mycobacterium abscessus (Blamab gene) with C-terminal TEV … (Mycobacterium abscessus); assay: cell-based or functional assay
[2] = molecular target: T1, antigenic protein: class A β-lactamase …; assay: nitrocefin hydrolysis assay with purified enzyme, Lineweaver-Burk
[3] = molecular target: T2, KPC-2 from Klebsiella pneumoniae, expressed in the periplasm of E. coli BL21(DE3) (Klebsiella pneumoniae, UniProt Q848S6 25-293); assay: nitrocefin assay on E. coli BL21(DE3) cells with the β-lactamase in the periplasm
T2 construct: Expressed from pET26b(+) with a pelB export signal

[4] = molecular target: T3, OXA-48 from Klebsiella pneumoniae, expressed in the periplasm of E. coli BL21(DE3) (Klebsiella pneumoniae, UniProt Q6XEC0 23-265, limits assumed); assay: as above
T3 construct: Expressed from pET26b(+) with a pelB export signal

[5] = molecular target: T4, VIM-2 from Pseudomonas aeruginosa, expressed in the periplasm of E. coli BL21(DE3) (Pseudomonas aeruginosa); assay: as above
[6] = molecular target: T2, KPC-2 from Klebsiella pneumoniae, …; assay: cell-based or functional assay
[7] = molecular target: T3, OXA-48 from Klebsiella pneumoniae, …; assay: cell-based or functional assay
[8] = molecular target: T4, VIM-2 from Pseudomonas aeruginosa, …; assay: cell-based or functional assay

Binder | Km (µM), with antibody [1] [µM] | Vmax (µM/min), with antibody [1] [µM/min] | Ki [2] [µM] | Ki [3] [µM] | Ki [4] [µM] | Ki [5] [µM] | other results
β-lactamase inhibitor B2 antibody (VHH, sdAb from a synthetic naive yeast display library; expressed from pET26b in the E. coli periplasm and purified by chromatography; also called sdAb B2) VHH: QVQLQESGGGLVQAGGSLRLSCAASGTIFVYPYMGWYRQAPGKEREFVAGIGQGATTYYADSVKGRFTISRDNAKNTVYLQMNSLKPEDTAVYYCAAYRYRDDVRRYGIDRYHTYWGQGTQVTVSS | 64.4 | 0.25 | 2.4 | 0.06 | 10.5 | 2.9 | Km(µM), with B2 [6]: 121 µM; Vmax(µM/min), with B2 [6]: 0.7 µM/min; Km(µM), with B2 [7]: 6.62 µM; Vmax(µM/min), with B2 [7]: 0.059 µM/min; Km(µM), with B2 [8]: 39.6 µM; Vmax(µM/min), with B2 [8]: 0.017 µM/min
β-lactamase inhibitor B6 antibody (VHH, sdAb from a synthetic naive yeast display library; expressed from pET26b in the E. coli periplasm and purified by chromatography; also called sdAb B6) VHH: QVQLQESGGGLVQAGGSLRLSCAASGTISAVSGMGWYRQAPGKEREFVASINRGSTTNYADSVKGRFTISRDNAKNTVYLQMNSLKPEDTAVYYCAALHGTGRVHVYWGQGTQVTVSS | 53.3 | 0.26 | 4.9 |  |  |  | 
β-lactamase inhibitor B4 antibody (VHH, sdAb from a synthetic naive yeast display library; expressed from pET26b in the E. coli periplasm and purified by chromatography; also called sdAb B4) VHH: QVQLQESGGGLVQAGGSLRLSCAASGTIFAQDYMGWYRQAPGKEREFVASIAYGTITYYADSVKGRFTISRDNAKNTVYLQMNSLKPEDTAVYYCAVYPTPVTDYIYWGQGTQVTVSS | 45.6 | 0.28 | 5.2 |  |  |  | 
β-lactamase inhibitor B5 antibody (VHH, sdAb from a synthetic naive yeast display library; expressed from pET26b in the E. coli periplasm and purified by chromatography; also called sdAb B5) VHH: QVQLQESGGGLVQAGGSLRLSCAASGNISDLGTMGWYRQAPGKEREFVAGIGTGSNTYYADSVKGRFTISRDNAKNTVYLQMNSLKPEDTAVYYCAVIAGRSYWIYFYYWGQGTQVTVSS | 57.3 | 0.23 | 3.8 | 0.12 | 30.8 | 68.9 | Km(µM), with B5 [6]: 2.19 µM; Vmax(µM/min), with B5 [6]: 0.5 µM/min; Km(µM), with B5 [7]: 2.26 µM; Vmax(µM/min), with B5 [7]: 0.061 µM/min; Km(µM), with B5 [8]: 0.97 µM; Vmax(µM/min), with B5 [8]: 0.0084 µM/min
β-lactamase inhibitor B3 antibody (VHH, sdAb from a synthetic naive yeast display library; expressed from pET26b in the E. coli periplasm and purified by chromatography; also called sdAb B3) VHH: QVQLQESGGGLVQAGGSLRLSCAASGTIFYYPYMGWYRQAPGKEREFVAGIDYGSTTYYADSVKGRFTISRDNAKNTVYLQMNSLKPEDTAVYYCAVVYLVTRKGASQQDEIYSYWGQGTQVTVSS | 51.9 | 0.34 | 2.7 |  |  |  | 
single domain antibody B1 (VHH, sdAb from a synthetic naive yeast display library; expressed from pET26b in the E. coli periplasm and purified by chromatography; also called sdAb B1) VHH: QVQLQESGGGLVQAGGSLRLSCAASGNIFTVSSMGWYRQAPGKEREFVAAISDGATTNYADSVKGRFTISRDNAKNTVYLQMNSLKPEDTAVYYCAAYASRVGLTVYWGQGTQVTVSS | 42.6 | 0.26 | 15.6 |  |  |  | 
